# Test results as given in patent publication US20180161335.
# Key:
# [1] = biological target: ARF3, purified from E. coli, preloaded with BODIPY FL GDP (UniProt P61204)
# Sequence of ARF3, purified from E. coli, preloaded with BODIPY FL GDP (P61204 whole entry): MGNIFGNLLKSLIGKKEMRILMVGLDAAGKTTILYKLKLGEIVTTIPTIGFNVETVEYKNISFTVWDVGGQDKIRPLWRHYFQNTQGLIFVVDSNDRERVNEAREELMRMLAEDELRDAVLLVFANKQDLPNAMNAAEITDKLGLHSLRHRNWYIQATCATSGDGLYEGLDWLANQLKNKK
substance,measurement,setting,value
"C9ORF72 isoform A, 2x HA-tagged, in HEK cell lysate",guanine exchange activity (BODIPY-GDP fluorescence),[1],C9ORF72 isoforms A and B stimulated guanine exchange on ARF3
same,guanine exchange activity (BODIPY-GDP fluorescence),the other GTPases tested,Significant activity was not observed using both C9ORF72 isoforms on the other GTPases tested
